Consider 3 molecules from patent US20120201781A1 (AbbVie / Abbott, published 2012).

The target of experiment [1] is T1, recombinant human IL-1β (human, UniProt P01584 117-269). Put plainly: cell-based or functional assay.
The target of experiment [2] is T1, recombinant human IL-1β. In words: SPR (Biacore), mAb captured via goat anti-mouse IgG. (In general: Surface plasmon resonance follows binding to a sensor surface in real time, without labels.)
Experiment [3] deals with T1, recombinant human IL-1β. Put plainly: SPR (Biacore).
Experiment [4] addresses T1, recombinant human IL-1β. Put plainly: SPR (Biacore), saturating binding.
For experiment [5], the target named is T1, recombinant human IL-1β. Put plainly: cell-based or functional assay. The source holds these as a separate data set.
The target in experiment [6] is T2, recombinant human IL-1α (human, UniProt P01583 113-271).
T2 sequence: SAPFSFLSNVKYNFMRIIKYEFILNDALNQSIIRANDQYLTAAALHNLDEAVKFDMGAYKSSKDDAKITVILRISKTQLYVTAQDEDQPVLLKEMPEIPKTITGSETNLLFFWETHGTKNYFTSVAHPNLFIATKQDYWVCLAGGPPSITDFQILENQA
Put plainly: cell-based or functional assay.

For experiment [7], the target named is T2, recombinant human IL-1α. In words: SPR (Biacore), mAb captured via goat anti-mouse IgG.
Experiment [8] concerns the target T2, recombinant human IL-1α. Put plainly: SPR (Biacore).
Experiment [9] addresses T2, recombinant human IL-1α. In words: SPR (Biacore), saturating binding.
In experiment [10] the target is T2, recombinant human IL-1α. Put plainly: cell-based or functional assay. This is another data set of the same source.
In experiment [11] the target is T1, recombinant human IL-1β. Put plainly: SPR (Biacore 3000), binder captured via goat anti-human IgG Fc. Here is the method:
(§1) Approximately, 5000 RU of goat anti-human IgG Fcγ fragment specific polyclonal antibody (Pierce Biotechnology Inc, Rockford, Ill.) diluted in 10 mM sodium acetate (pH 4.5) was directly immobilized across a CM5 research grade biosensor chip using a standard amine coupling kit according to manufacturer's instructions and procedures at […]. Unreacted moieties on the biosensor surface were blocked with ethanolamine. Modified carboxymethyl dextran surface in flowcell 2 and 4 was used as a reaction surface. Unmodified carboxymethyl dextran without goat anti-human IgG in flow cell 1 and 3 was used as the reference surface. For kinetic analysis, rate equations derived from the 1:1 Langmuir binding model were fitted simultaneously to association and dissociation phases of all ten injections (using global fit analysis) using the Bioevaluation 4.0.1 software. Purified DVD-Ig samples were diluted in HEPES-buffered saline for capture across goat anti-human IgG Fc specific reaction surfaces and injected over reaction matrices at a flow rate of […]. The association and dissociation rate constants, kon (M-1s-1) and koff (s-1) were determined under a continuous flow rate of 25 ml/minute. […] The equilibrium dissociation constant (M) of the reaction between DVD-Ig molecule and rhIL1α/β was then calculated from the kinetic rate constants by the following formula: KD=koff/kon. Aliquots of rhIL1α/β samples were also simultaneously injected over a blank reference and reaction CM surface to record and subtract any nonspecific binding background to eliminate the majority of the refractive index change and injection noise. Surfaces were regenerated with two subsequent […] injections of 10 mM Glycine (pH 1.5) at a flow rate of […]. The anti-Fc antibody immobilized surfaces were completely regenerated and retained their full capture capacity over twelve cycles. The apparent stoichiometry of the captured DVD-Ig-rhIL1α/β complex was calculated under saturating binding conditions (steady-state equilibrium) using the following formula: […]

In experiment [12] the target is T2, recombinant human IL-1α. The description is as above. How it is done:
as §1

Experiment [13] concerns the target T1, recombinant human IL-1β. Put plainly: SPR (Biacore), hIL-1β as 2nd antigen after hIL-1α. Here is the method:
(§2) In addition, tetravalent dual-specific antigen binding of DVD-Ig binding protein was also analyzed by Biacore (Table 14). DVD-Ig binding protein was first captured via a goat anti-human Fc antibody on the Biacore sensor chip, and the first antigen was injected and a binding signal observed. As the DVD-Ig binding protein was saturated by the first antigen, the second antigen was then injected and the second signal observed. This was done either by first injecting IL-1β then IL-1α or by first injecting IL-1α followed by IL-1β for DVD2-Ig binding protein. In either sequence, a dual-binding activity was detected. Similar results were obtained for DVD1-Ig binding protein. Thus, each DVD-Ig binding protein was able to bind both antigens simultaneously as a dual-specific tetravalent molecule. […] Upon the injection of the second antigen, while DVD-Ig binding protein was already occupied by the first antigen, the stoichiometry of both DVD-Igs binding protein to the second antigen (i.e., hIL-1α or hIL-1β was between 1.0 and 1.3. Thus, DVD-Ig binding protein was able to bind two IL-1α and two IL-β molecules. DVD-Ig binding protein was first captured via a goat anti-human Fc antibody on the Biacore sensor chip, and the first antigen was injected and a binding signal observed, followed by the injection of the second antigen.

The target of experiment [14] is T2, recombinant human IL-1α. In words: SPR (Biacore), hIL-1α as 2nd antigen after hIL-1β. Here is the method: as §2
For experiment [15], the target named is T1, recombinant human IL-1β. In words: SPR (Biacore 3000), saturating binding. How it is done:
(§3) The association and dissociation rate constants, kon (M-1s-1) and koff (s-1) were determined under a continuous flow rate of 25 ml/minute. […] The equilibrium dissociation constant (M) of the reaction between DVD-Ig molecule and rhIL1α/β was then calculated from the kinetic rate constants by the following formula: KD=koff/kon. Aliquots of rhIL1α/β samples were also simultaneously injected over a blank reference and reaction CM surface to record and subtract any nonspecific binding background to eliminate the majority of the refractive index change and injection noise. Surfaces were regenerated with two subsequent […] injections of 10 mM Glycine (pH 1.5) at a flow rate of […]. The anti-Fc antibody immobilized surfaces were completely regenerated and retained their full capture capacity over twelve cycles. The apparent stoichiometry of the captured DVD-Ig-rhIL1α/β complex was calculated under saturating binding conditions (steady-state equilibrium) using the following formula: […]
(§4) The affinity of the two DVD-Ig binding proteins to hIL-1 as compared to the affinity of chimeric antibodies to hIL-1 was similar as indicated by the evaluation of the stoichiometry to IL-1. Both chimeric antibodies, being bivalent monospecific, bound to IL-1α and IL-1β on Biacore with a stoichiometry of 1.6 and 1.7, respectively. This is common for an IgG due to inter-molecular interference when antibodies are immobilized densely on the Biacore sense chip resulting in stoichiometry being in the range from 1.5 to 2.0.

Experiment [16] concerns the target T2, recombinant human IL-1α. In words: SPR (Biacore 3000), saturating binding. Here is the method:
as §3, §4

Experiment [17] concerns the target T1, recombinant human IL-1β. Put plainly: SPR (Biacore), hIL-1β as 1st antigen. Here is the method: as §2
Experiment [18] concerns the target T1, recombinant human IL-1β. In words: SPR (Biacore). Here is the method: (§5) The equilibrium dissociation constant (M) of the reaction between DVD-Ig molecule and rhIL1α/β was then calculated from the kinetic rate constants by the following formula: KD=koff/kon. Aliquots of rhIL1α/β samples were also simultaneously injected over a blank reference and reaction CM surface to record and subtract any nonspecific binding background to eliminate the majority of the refractive index change and injection noise. Surfaces were regenerated with two subsequent […] injections of 10 mM Glycine (pH 1.5) at a flow rate of […]. The anti-Fc antibody immobilized surfaces were completely regenerated and retained their full capture capacity over twelve cycles. The apparent stoichiometry of the captured DVD-Ig-rhIL1α/β complex was calculated under saturating binding conditions (steady-state equilibrium) using the following formula: […]
as §4
The source holds these as a separate data set.

The target in experiment [19] is T2, recombinant human IL-1α. In words: SPR (Biacore). Here is the method:
as §5, §4
The source holds these as a separate data set.

Experiment [20] addresses T1, recombinant human IL-1β. Put plainly: cell-based or functional assay. This is another data set of the same source.
Experiment [21] concerns the target T2, recombinant human IL-1α. In words: cell-based or functional assay. The source holds these as a separate data set.
For experiment [22], the target named is T2, recombinant human IL-1α. In words: SPR (Biacore), hIL-1α as 1st antigen. Here is the method:
as §2

B1: murine monoclonal antibody 13F5.G5 (antibody, V domains shown)
VH: QVQLQQSGAELVRPGSSVKISCKASGYAFSSYWMNWVKQRPGQGLEWIGQIYPGDGDTNYNGKFKGKATLTADKSSSTSYMQLSGLTSEDSAMYFCVRFPTGNDYYAMDYWGQGTSVTVSS
VL: NIVLTQSPASLAVSLGQRATISCRASESVDSYGNSYMHWYQQKPGQPPKLLIYLASNLESGVPARFSGSGSRTDFTLTIDPVEADDAATYYCQQNNEDPFTFGSGTKLEIKR
notes: Murine hybridoma mAb, anti-hIL-1β
Regarding B1, the “Potency (IC50) M, MRC-5 bioassay” value in [1] is 0.6 nM. Also, the Kd in experiment [2] came out at 0.291 nM. Further, in [3], the Kd amounted to 0.291 nM, the koff stood at 0.000621 s⁻¹ and the kon was 2.13e+06 M⁻¹ s⁻¹. In addition, the Stoichiometry in experiment [4] worked out at 1.8. In experiment [5], the “IC50 (M), MRC-5 bioassay (inhibition of IL-8 production)” value turned out to be 6e-10 M.

B2: murine monoclonal antibody 3D12.E3 (antibody, V domains shown)
VH: QIQLVQSGPELKKPGETVKISCKASGYTFRNYGMNWVKQAPGKDLKRMAWINTYTGESTYADDFKGRFAFSLETSASTAYLQINNLKNEDTATYFCARGIYYYGSSYAMDYWGQGTSVTVSS
VL: NIQMTQTTSSLSASLGDRVTISCRASQDISNCLNWYQQKPDGTVKLLIYYTSRLHSGVPSRFSGSGSGTDYSLTISNLEQEDIATYFCQQGKTLPYAFGGGTKLEINR
notes: Murine hybridoma mAb, anti-hIL-1α
For B2, in [6], the “Potency (IC50) M, MRC-5 bioassay” value is 0.67 nM. Also, in experiment [7], the Kd came to 1.11 nM. Further, in experiment [8], the Kd came to 1.11 nM, the koff is 0.000713 s⁻¹ and the kon is 643000 M⁻¹ s⁻¹. The Stoichiometry in experiment [9] worked out at 2. Further, the “IC50 (M), MRC-5 bioassay (inhibition of IL-8 production)” value in experiment [10] is 6.7e-10 M.

B3: hIL-1α/β DVD2-Ig binding protein (bispecific antibody, human IgG1, kappa)
heavy: not shown
light: NIVLTQSPASLAVSLGQRATISCRASESVDSYGNSYMHWYQQKPGQPPKLLIYLASNLESGVPARFSGSGSRTDFTLTIDPVEADDAATYYCQQNNEDPFTFGSGTKLEIKRADAAPNIQMTQTTSSLSASLGDRVTISCRASQDISNCLNWYQQKPDGTVKLLIYYTSRLHSGVPSRFSGSGSGTDYSLTISNLEQEDIATYFCQQGKTLPYAFGGGTKLEINRTVAAPSVFIFPPSDEQLKSGTASVVCLLNNFYPREAKVQWKVDNALQSGNSQESVTEQDSKDSTYSLSSTLTLSKADYEKHKVYACEVTHQGLSSPVTKSFNRGEC
notes: 13F5.G5 V - linker (heavy AKTTPP, light ADAAP) - 3D12.E3 V, human Cγ1/Cκ
Turning to B3, the Kd in experiment [11] is 0.798 nM; in experiment [12], 3.42 nM. The values for the koff in experiment [11] and in experiment [12] were 0.00095 s⁻¹ and 0.000252 s⁻¹, respectively. The kon came out at 1.19e+06 M⁻¹ s⁻¹ in experiment [11] and 73500 M⁻¹ s⁻¹ in [12]. For the same molecule, the “Potency (IC50) M, MRC-5 bioassay” value in experiment [1] was 1.6 nM; in experiment [6] it was 2.9 nM. The entries for the “Stoichiometry hIL-1β:DVD-Ig” value in experiment [13] and in experiment [17] were 1.3 and 1.6, respectively. Besides, the figures for the “Stoichiometry hIL-1α:DVD-Ig” value in experiment [14] and in experiment [22] were 1.2 and 1.8, respectively. Also, the Stoichiometry in [15] was determined as 1.8; in [16] it was 2. In experiment [18], the “fold higher affinity than DVD1-Ig binding protein” value is 3 fold. In [19], the “fold lower affinity than the chimeric 3D12.E3 antibody” value worked out at 3 fold. In addition, the “neutralizing activity in MRC-5 bioassay, fold higher than DVD1-Ig” value in experiment [20] was found to be 3 fold. For the same molecule, in experiment [21], the “neutralizing activity in MRC-5 bioassay, fold less than the chimeric antibodies” value was 3 fold.

The Kd is the concentration at which binding is half-saturated. As a reminder, the koff is the rate constant with which the complex falls apart. The term kon denotes the second-order rate constant of association.
